Assay results published in publication PMC12217647, “Mid‐Regional Proadrenomedullin Can Be Reliably Measured in Cerebrospinal Fluid to Improve Diagnosis of Central Nervous System Diseases” (Journal of Clinical Laboratory Analysis, 2025).
Values joined by “and” are separate entries in the source; they are usually repeats but may differ in a detail not shown here. Equal values may be shown once.

Tests used:
[1] = plasma‐EDTA, ref IFU_B.R.A.H.M.S. MR‐proADM KRYPTOR assay, 07 April 2022, cited from earlier work
Procedure: MR‐proADM concentrations were measured in CSF using the B.R.A.H.M.S. MR‐proADM fluoroimmunoassay on the Brahms Kryptor Gold Analyzer (THERMO […], Hennigsdorf, Germany), which is a fully automated homogeneous phase random access platform. The system uses the TRACE (Time‐Resolved Amplified Cryptate Emission) technology to measure the fluorescence signal emitted by an immunocomplex. MR‐proADM results are expressed in nmol/L. The declared linearity in plasma EDTA samples ranges from 0.21 to 100 nmol/L, with a maximum bias of ±20%. The manufacturer's reference range for EDTA plasma samples i ...

[2] = body fluids; statement of the introduction; cited from earlier work
[3] = MR‐proADM stability in CSF at room temperature (B.R.A.H.M.S. MR‐proADM KRYPTOR fluoroimmunoassay); assay type: in vitro ADME, human
Procedure: (§1) MR‐proADM concentrations were measured in CSF using the B.R.A.H.M.S. MR‐proADM fluoroimmunoassay on the Brahms Kryptor Gold Analyzer (THERMO […], Hennigsdorf, Germany), which is a fully automated homogeneous phase random access platform. The system uses the TRACE (Time‐Resolved Amplified Cryptate Emission) technology to measure the fluorescence signal emitted by an immunocomplex. MR‐proADM results are expressed in nmol/L. The declared linearity in plasma EDTA samples ranges from 0.21 to 100 nmol/L, with a maximum bias of ±20%. The manufacturer's reference range for EDTA plasma samples is < 0.56 nmol/L, corresponding to the 97.5th percentile of a control series, which disclosed a median value of 0.38 nmol/L. The Limit of Detection (LoD) is 0.09 nmol/L, while the Limit of Quantitation (LoQ) is 0.21 nmol/L (IFU_B.R.A.H.M.S. MR‐proADM KRYPTOR assay; 07 April 2022; Thermo Scientific, Hennigsdorf, Germany). This MR‐proADM immunoassay is currently certified only for plasma‐EDTA blood samples, and the manufacturer recommends immediate centrifugation to preserve molecular stability at room temperature (18°C–25°C) or at 2°C–8°C up to 24 h. Afterwards, samples should be aliquoted and frozen at −20°C or below. Plasma samples can be kept frozen up to 14 days, and the analyte is considered stable for up to 4 freeze/thaw cycles.
(§2) According to the recommendations in plasma, MR‐proADM was measured in clear CSF samples after centrifugation to avoid interference by cells or other microparticles. Bloody CSF samples were discarded. The first step was aimed at assessing MR‐proADM stability in CSF as a function of different storage temperatures and storage time after collection. To test room temperature stability in CSF, we measured MR‐proADM in 10 fresh samples (T0) and after 12, 24, and 48 h (T1, T2, T3) on the bench (25°C). To test recovery after storage at −20°C, we measured MR‐proADM concentration in 29 CSF samples stored frozen for less than 15, 16 to 60, and more than 60 days. Finally, to test recovery after storage at −80°C, we measured MR‐proADM concentration in 25 CSF samples before and after a variable period of storage at −80°C. The second step of our study was to evaluate the analytical performance of the B.R.A.H.M.S. MR‐proADM method using CSF samples. For this purpose, we evaluated the repeatability and the within‐laboratory precision of this assay. Due to the small amount of CSF volume obtained from each residual sample, 58 CSF samples were pooled in 3 subgroups according to their MR‐proADM values, thus creating 3 pools of about 5 mL volume each, characterized by low, medium, and high MR‐proADM concentration. These pools were finally stored at −20°C.
(§3) To assess the difference between measures of MR‐proADM in fresh samples and after storage at room temperature, at −20°C, and at −80°C, we used the Wilcoxon matched‐paired T test, considering significant p < 0.05.

[4] = MR‐proADM stability in CSF samples stored at −20°C; assay type: in vitro ADME, human; conditions: for Mean difference pre and post freezing: mean of samples
Procedure: as §1
as §2, with “−20°C. […]” for “−20°C.”

[5] = MR‐proADM stability in CSF samples stored at −80°C; assay type: in vitro ADME, human
Procedure: as §1, §2, §3

Mid‐regional proADM (ELRMSSSYPTGLADVKAGPAQTLIRPQDMKGASRSPEDSSPDAARIRV; MR-proADM; UniProt P35318 45-92, looked up, fragment) [MR‐proADM]
Time of molecular stability after centrifugation ([1]; room temperature (18°C–25°C) or 2°C–8°C): up to 24 h | Time plasma samples can be kept frozen ([1]; −20°C or below): up to 14 days | Freeze/thaw cycles over which the analyte is considered stable [1]: up to 4 freeze/thaw cycles | half‐life compared with ADM (in words) [2]: longer half‐life | MR‐proADM concentration, After 12 h ([3]; CSF on the bench at room temperature (25°C) for 12 h, individual samples S1–S10, one line per sample, p = 0.2918 vs fresh): 0.45 nmol/L and 2.67 nmol/L and 0.80 nmol/L and 1.11 nmol/L and 1.23 nmol/L and 0.91 nmol/L and 1.07 nmol/L and 0.96 nmol/L and 1.63 nmol/L | MR‐proADM concentration, After 24 h ([3]; CSF on the bench at room temperature (25°C) for 24 h, individual samples S1–S10, one line per sample, p = 0.6760 vs fresh): 0.51 nmol/L and 2.61 nmol/L and 0.80 nmol/L and 1.15 nmol/L and 1.25 nmol/L and 0.93 nmol/L and 1.09 nmol/L and 0.92 nmol/L and 1.67 nmol/L | MR‐proADM concentration, After 48 h ([3]; CSF on the bench at room temperature (25°C) for 48 h, individual samples S1–S10, one line per sample, p = 0.1515 vs fresh): 0.45 nmol/L and 2.74 nmol/L and 0.78 nmol/L and 1.14 nmol/L and 1.27 nmol/L and 0.93 nmol/L and 1.12 nmol/L and 0.97 nmol/L and 0.99 nmol/L and 1.64 nmol/L | Stability in CSF samples stored at room temperature (in words) ([3]; CSF, 25°C, 12, 24 and 48 h, n = 10 samples, no significant difference from fresh): highly stable | Storage time at room temperature over which MR‐proADM remains highly stable in CSF ([3]; CSF, room temperature (25°C)): ≤ 48 h | MR‐proADM concentration, Fresh ([3]; T0 baseline, clear centrifuged CSF, 10 individual samples S1–S10, one line per sample, TRACE fluoroimmunoassay, Kryptor): 0.45 nmol/L and 2.67 nmol/L and 0.79 nmol/L and 1.15 nmol/L and 1.23 nmol/L and 0.92 nmol/L and 1.07 nmol/L and 0.94 nmol/L and 0.98 nmol/L and 1.65 nmol/L | Mean difference pre and post freezing ([4]; CSF stored at −20°C for less than 15 days): 14.2% | Mean difference pre and post freezing ([4]; CSF stored at −20°C for more than 60 days): 18.6% | Mean difference pre and post freezing ([4]; CSF stored at −20°C from 16 to 60 days): 15.9% | Percentage reduction in some samples ([4]; CSF stored at −20°C, worst cases): up to 50% | Stability in CSF samples stored at −80°C (in words) ([5]; 25 CSF samples, variable storage time at −80°C): quite stable | Decrement, half of the samples ([5]; CSF stored at −80°C, 25 samples): ≤ 10% | Loss of recovery / decrement versus fresh, majority of cases ([5]; CSF stored at −80°C, p < 0.001 vs fresh): less than 10% | Storage time at −80°C with very good stability ([5]; CSF, −80°C): at least 24 months | MR‐proADM concentration, Fresh ([5]; baseline before storage at −80°C, 25 individual CSF samples S1–S25, one line per sample): 0.55 nmol/L and 0.56 nmol/L and 0.77 nmol/L and 0.51 nmol/L and 0.53 nmol/L and 0.59 nmol/L and 0.66 nmol/L and 0.70 nmol/L and 0.89 nmol/L and 1.00 nmol/L and 0.43 nmol/L and 0.57 nmol/L and 0.64 nmol/L and 0.69 nmol/L and 0.75 nmol/L and 0.62 nmol/L and 0.71 nmol/L and 0.73 nmol/L and 0.79 nmol/L and 0.54 nmol/L
